Assay results as given in PMC5347347, “A Localized Complex of Two Protein Oligomers Controls the Orientation of Cell Polarity” (mBio, 2017).
Values belong to the molecule of their own block, whether it stands above or below them.

Key:
[1] = target: SpmX-L (SpmX lysozyme-like domain alone, residues 1 to 155) (Caulobacter crescentus); assay: MST; Atto-488-labelled SpmX* or SpmX-L* held constant at 25 nM; PopZ (max 10 μM), DivJ (max 40 μM) or unlabelled SpmX titrated in 2-fold serial dilutions; incubated 10 min at room temperature; fitted by the law of mass action
[2] = target: SpmX (purified WT SpmX without its transmembrane region, residues 1 to 355) (Caulobacter crescentus); assay: as above
[3] = target: SpmX E19R (purified) (Caulobacter crescentus); assay: SEC; analytical size exclusion, Superdex 200 Increase 10/300 GL; apparent masses from a Bio-Rad gel filtration standard; purified SpmX variants alone
[4] = target: PopZ (purified, His-tagged) (Caulobacter crescentus); assay: SPR; PopZ immobilised on the sensor chip; 2-fold serial dilutions of WT SpmX or SpmX-L injected, with washes between injections
[5] = target: T1, DivJ histidine kinase (purified without its TM regions, His-tagged) (Caulobacter crescentus, UniProt Q03228 189-597); assay: MST; Atto-488-labelled SpmX* or SpmX-L* held constant at 25 nM; PopZ (max 10 μM), DivJ (max 40 μM) or unlabelled SpmX titrated in 2-fold serial dilutions; incubated 10 min at room temperature; fitted by the law of mass action; details: both partners purified
T1 construct: DivJ histidine kinase, Caulobacter crescentus, purified without its TM regions (the cytoplasmic portion); Construct limits are expected in Text S1; also called cytoplasmic portion of DivJ; source: purified, His-tagged
T1 sequence (looked up): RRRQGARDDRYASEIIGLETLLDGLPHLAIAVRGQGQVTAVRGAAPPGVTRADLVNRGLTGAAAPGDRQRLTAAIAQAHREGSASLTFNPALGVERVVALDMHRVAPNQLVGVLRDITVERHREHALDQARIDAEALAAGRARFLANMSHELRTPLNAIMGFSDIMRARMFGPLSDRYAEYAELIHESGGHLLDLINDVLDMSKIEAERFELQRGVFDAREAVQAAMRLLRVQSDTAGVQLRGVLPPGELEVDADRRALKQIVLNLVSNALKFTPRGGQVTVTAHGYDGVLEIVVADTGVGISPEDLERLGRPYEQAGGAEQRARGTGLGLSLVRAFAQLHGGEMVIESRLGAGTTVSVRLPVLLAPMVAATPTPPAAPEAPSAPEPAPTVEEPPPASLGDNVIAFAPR

[6] = target: the molecule itself; assay: as above

Chain of PopZ (purified, His-tagged) (Caulobacter crescentus) (A0A0H3C7Y4 entry or part of it): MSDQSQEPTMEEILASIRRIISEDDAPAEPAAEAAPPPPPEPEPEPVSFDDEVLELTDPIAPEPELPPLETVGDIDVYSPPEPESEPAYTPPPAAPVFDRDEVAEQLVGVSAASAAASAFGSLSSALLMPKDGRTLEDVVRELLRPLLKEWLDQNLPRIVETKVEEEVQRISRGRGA

Kd [1]: 6300 nM
Molecule: DivJ histidine kinase (purified without its TM regions, His-tagged) (from UniProt Q03228 189-597) (domain or fragment)

Kd [1]: 630 nM
Kd [5]: 510 ± 90 nM
B1: SpmX (purified WT SpmX without its transmembrane region, residues 1 to 355) (domain or fragment, Caulobacter crescentus, UniProt A0A0H3C9Y4 1-355, looked up)
chain: MKPRHQVSRAAVDLIKRFEGYRQKAAQLPDGRWTVGYGHTLTAREGASVSEKDAEALLLYDLISVAHSVNEHTYTPLNQNQFDALVCFAFNIGLDNFLRSGVLRRINEGSLLQAACAMEMWRKADFEGERIVIDALVRRRSAEKTLFLTPANGEWVPAPSPVLRPKVDYDASCAVPKQTPATVNTRTEGDRVIAQREEGLPLNVVVPEEDAPTATEQSAAAVAARLEAILPETPSAPASMAKPAMRQDDLGLPEPPAPTQPAAMEPAPVLFEAEPQPAPVEPPPAAPVEFTPFRLTPQASEQAEAPVEAPAPTRPAPSEPTLFGAPATGSSVFNLDGFSTSEDATVGVMDVPLVE
modifications: Atto-488 on lysine residues, approximately one dye molecule per protein (only the labelled copy SpmX* held constant in MST; unlabelled as titrant and in SPR, SEC and native gel)
notes: purified without the TM region, residues 1 to 355; predicted monomeric mass 40.1 kDa; Forms higher-order oligomers (void volume in SEC, ladder in native gel); Construct details are in Text S1; also called SpmX-ΔTM; source: purified, His-tagged
Kd [6]: 360 ± 50 nM

The remaining lines, values behind:

Molecule: PopZ (purified, His-tagged) (natural protein)
Kd [2]: 600 nM
Kd [1]: 120 nM

Molecule: SpmX E19R (purified) (domain or fragment)
stoichiometry N [3]: 4

Molecule: SpmX-L (SpmX lysozyme-like domain alone, residues 1 to 155) (domain or fragment)
overall SPR response relative to WT SpmX at comparable concentrations [4]: 2 fold
